# Data reported in the supplement of paper PMC10567573.
# B1: SPOPL (parent)
# chain: YTGRAPNLDKMADNLLAAADKYAL
# Variants of: B1
# Assay: protein stability index of a GFP-peptide fusion (GPS, HEK-293T) (PSI 1-6); higher = more stable
# Settings: c terminus: a fixed tail appended
# 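Note: lentivirally expressed fusions sorted by FACS into six bins by GFP to DsRed ratio, PSI derived from sequencing read proportions per bin multiplied by bin number.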
row,Variant,protein stability index
1,YTGVAPNLDKMADNLLAAADKYAL [R4V],1.88
2,YTGCAPNLDKMADNLLAAADKYAL [R4C],2.31
3,YTGKAPNLDKMADNLLAAADKYAL [R4K],2.41
4,YTGAAPNLDKMADNLLAAADKYAL [R4A],2.38
5,YTGFAPNLDKMADNLLAAADKYAL [R4F],2.12
6,YTGLAPNLDKMADNLLAAADKYAL [R4L],3.6
7,YTGYAPNLDKMADNLLAAADKYAL [R4Y],2.02
8,YTGSAPNLDKMADNLLAAADKYAL [R4S],2.77
9,YTGGAPNLDKMADNLLAAADKYAL [R4G],2.74
10,YTGMAPNLDKMADNLLAAADKYAL [R4M],1.69
11,YTGNAPNLDKMADNLLAAADKYAL [R4N],2.09
12,YTGHAPNLDKMADNLLAAADKYAL [R4H],2.04
13,YTGIAPNLDKMADNLLAAADKYAL [R4I],1.96
14,YTGPAPNLDKMADNLLAAADKYAL [R4P],2.75
15,YTGDAPNLDKMADNLLAAADKYAL [R4D],3
16,YTGQAPNLDKMADNLLAAADKYAL [R4Q],2.86
17,YTGEAPNLDKMADNLLAAADKYAL [R4E],3.04
18,YTGTAPNLDKMADNLLAAADKYAL [R4T],1.84
19,YTGRAPNLDYMADNLLAAADKYAL [K10Y],1.61
20,YTGRAPNLDQMADNLLAAADKYAL [K10Q],1.75
21,YTGRAPNLDAMADNLLAAADKYAL [K10A],1.81
22,YTGRAPNLDLMADNLLAAADKYAL [K10L],1.89
23,YTGRAPNLDTMADNLLAAADKYAL [K10T],1.75
24,YTGRAPNLDVMADNLLAAADKYAL [K10V],1.75

row,Variant,protein stability index
1,YTGRAPNLDSMADNLLAAADKYAL [K10S],2.83
2,YTGRAPNLDNMADNLLAAADKYAL [K10N],2.6
3,YTGRAPNLDPMADNLLAAADKYAL [K10P],2.42
4,YTGRAPNLDGMADNLLAAADKYAL [K10G],2.25
5,YTGRAPNLDMMADNLLAAADKYAL [K10M],2.41
6,YTGRAPNLDEMADNLLAAADKYAL [K10E],2.23
7,YTGRAPNLDCMADNLLAAADKYAL [K10C],1.35
8,YTGRAPNLDHMADNLLAAADKYAL [K10H],1.97
9,YTGRAPNLDIMADNLLAAADKYAL [K10I],1.49
10,YTGRAPNLDRMADNLLAAADKYAL [K10R],1.43
11,YTGRAPNLDDMADNLLAAADKYAL [K10D],1.91
12,YTGRAPNLDFMADNLLAAADKYAL [K10F],1.68
13,YTQRAPNLDKMADNLLAAADKYAL [G3Q],2.7
14,YTYRAPNLDKMADNLLAAADKYAL [G3Y],2.82
15,YTSRAPNLDKMADNLLAAADKYAL [G3S],2.1
16,YTWRAPNLDKMADNLLAAADKYAL [G3W],2.88
17,YTKRAPNLDKMADNLLAAADKYAL [G3K],2.18
18,YTARAPNLDKMADNLLAAADKYAL [G3A],2.17
19,YTTRAPNLDKMADNLLAAADKYAL [G3T],1.94
20,YTLRAPNLDKMADNLLAAADKYAL [G3L],2.11
21,YTNRAPNLDKMADNLLAAADKYAL [G3N],2.83
22,YTIRAPNLDKMADNLLAAADKYAL [G3I],1.86
23,YTERAPNLDKMADNLLAAADKYAL [G3E],2.94
24,YTRRAPNLDKMADNLLAAADKYAL [G3R],2.29

row,Variant,protein stability index
1,YTHRAPNLDKMADNLLAAADKYAL [G3H],2.5
2,YTFRAPNLDKMADNLLAAADKYAL [G3F],1.93
3,YTMRAPNLDKMADNLLAAADKYAL [G3M],2.68
4,YTPRAPNLDKMADNLLAAADKYAL [G3P],2.14
5,YTCRAPNLDKMADNLLAAADKYAL [G3C],1.64
6,YTVRAPNLDKMADNLLAAADKYAL [G3V],2.62
7,YTDRAPNLDKMADNLLAAADKYAL [G3D],3.99
8,YTGRAPNLDKMCDNLLAAADKYAL [A12C],2.56
9,YTGRAPNLDKMFDNLLAAADKYAL [A12F],1.58
10,YTGRAPNLDKMKDNLLAAADKYAL [A12K],1.97
11,YTGRAPNLDKMHDNLLAAADKYAL [A12H],2.33
12,YTGRAPNLDKMLDNLLAAADKYAL [A12L],1.53
13,YTGRAPNLDKMGDNLLAAADKYAL [A12G],2.36
14,YTGRAPNLDKMMDNLLAAADKYAL [A12M],2.64
15,YTGRAPNLDKMDDNLLAAADKYAL [A12D],2.92
16,YTGRAPNLDKMEDNLLAAADKYAL [A12E],2.05
17,YTGRAPNLDKMIDNLLAAADKYAL [A12I],2.87
18,YTGRAPNLEKMADNLLAAADKYAL [D9E],2.24
19,YTGRAPNLFKMADNLLAAADKYAL [D9F],3.79
20,YTGRAPNLWKMADNLLAAADKYAL [D9W],2.67
21,YTGRAPNLAKMADNLLAAADKYAL [D9A],2.12
22,YTGRAPNLVKMADNLLAAADKYAL [D9V],3.1
23,YTGRAPNLRKMADNLLAAADKYAL [D9R],1.2
24,YTGRAPNLNKMADNLLAAADKYAL [D9N],1.65

row,Variant,protein stability index
1,YTGRAPNLIKMADNLLAAADKYAL [D9I],1.37
2,YTGRAPNLCKMADNLLAAADKYAL [D9C],1.99
3,YTGRAPNLTKMADNLLAAADKYAL [D9T],1.85
4,YTGRAPNLPKMADNLLAAADKYAL [D9P],2.36
5,YTGRAPNLKKMADNLLAAADKYAL [D9K],2.34
6,YTGRAPNLMKMADNLLAAADKYAL [D9M],2.23
7,YTGRAPNLSKMADNLLAAADKYAL [D9S],1.78
8,YTGRAPNLQKMADNLLAAADKYAL [D9Q],2.84
9,YTGRAPNLHKMADNLLAAADKYAL [D9H],2.17
10,YTGRADNLDKMADNLLAAADKYAL [P6D],2.31
11,YTGRAKNLDKMADNLLAAADKYAL [P6K],1.43
12,YTGRAGNLDKMADNLLAAADKYAL [P6G],1.68
13,YTGRARNLDKMADNLLAAADKYAL [P6R],2.44
14,YTGRAFNLDKMADNLLAAADKYAL [P6F],2.09
15,YTGRAHNLDKMADNLLAAADKYAL [P6H],1.09
16,YTGRATNLDKMADNLLAAADKYAL [P6T],2.16
17,YTGRAENLDKMADNLLAAADKYAL [P6E],2.82
18,YTGRAWNLDKMADNLLAAADKYAL [P6W],5
19,YTGRAINLDKMADNLLAAADKYAL [P6I],1.85
20,YTGRAVNLDKMADNLLAAADKYAL [P6V],2.11
21,YTGRASNLDKMADNLLAAADKYAL [P6S],2.16
22,YTGRACNLDKMADNLLAAADKYAL [P6C],1.65
